Assay results reported in PMC9645528, “Structural and functional basis of mammalian microRNA biogenesis by Dicer”.

Assays:
Dicer (full-length) = Dicer (full-length) (Mus musculus, UniProt Q8R418 1-1916); experiment: EMSA; EMSA conditions not in the material; protein storage/SEC buffer 50 mM Tris pH 8.0, 150 mM NaCl, 1 mM DTT, 2 mM MgCl2 (2 mM CaCl2 for WT Dicer structural work); details: protein: recombinant, tags: N-term TwinStrep-HA-TEV, C-term TEV-2xFLAG-8xHis, hairpin, GCAA tetraloop, 3' overhang UU
[1] = target: DicerO (oocyte isoform lacking HEL1) (Mus musculus, UniProt Q8R418-2 1-1678); experiment: as above; details: protein: recombinant, tags: N-term TwinStrep-HA-TEV, C-term TEV-2xFLAG-8xHis, hairpin, GCAA tetraloop, 3' overhang UU
Chain of DicerO (oocyte isoform lacking HEL1) (Q8R418 other isoform, or with tags, fused parts or gaps): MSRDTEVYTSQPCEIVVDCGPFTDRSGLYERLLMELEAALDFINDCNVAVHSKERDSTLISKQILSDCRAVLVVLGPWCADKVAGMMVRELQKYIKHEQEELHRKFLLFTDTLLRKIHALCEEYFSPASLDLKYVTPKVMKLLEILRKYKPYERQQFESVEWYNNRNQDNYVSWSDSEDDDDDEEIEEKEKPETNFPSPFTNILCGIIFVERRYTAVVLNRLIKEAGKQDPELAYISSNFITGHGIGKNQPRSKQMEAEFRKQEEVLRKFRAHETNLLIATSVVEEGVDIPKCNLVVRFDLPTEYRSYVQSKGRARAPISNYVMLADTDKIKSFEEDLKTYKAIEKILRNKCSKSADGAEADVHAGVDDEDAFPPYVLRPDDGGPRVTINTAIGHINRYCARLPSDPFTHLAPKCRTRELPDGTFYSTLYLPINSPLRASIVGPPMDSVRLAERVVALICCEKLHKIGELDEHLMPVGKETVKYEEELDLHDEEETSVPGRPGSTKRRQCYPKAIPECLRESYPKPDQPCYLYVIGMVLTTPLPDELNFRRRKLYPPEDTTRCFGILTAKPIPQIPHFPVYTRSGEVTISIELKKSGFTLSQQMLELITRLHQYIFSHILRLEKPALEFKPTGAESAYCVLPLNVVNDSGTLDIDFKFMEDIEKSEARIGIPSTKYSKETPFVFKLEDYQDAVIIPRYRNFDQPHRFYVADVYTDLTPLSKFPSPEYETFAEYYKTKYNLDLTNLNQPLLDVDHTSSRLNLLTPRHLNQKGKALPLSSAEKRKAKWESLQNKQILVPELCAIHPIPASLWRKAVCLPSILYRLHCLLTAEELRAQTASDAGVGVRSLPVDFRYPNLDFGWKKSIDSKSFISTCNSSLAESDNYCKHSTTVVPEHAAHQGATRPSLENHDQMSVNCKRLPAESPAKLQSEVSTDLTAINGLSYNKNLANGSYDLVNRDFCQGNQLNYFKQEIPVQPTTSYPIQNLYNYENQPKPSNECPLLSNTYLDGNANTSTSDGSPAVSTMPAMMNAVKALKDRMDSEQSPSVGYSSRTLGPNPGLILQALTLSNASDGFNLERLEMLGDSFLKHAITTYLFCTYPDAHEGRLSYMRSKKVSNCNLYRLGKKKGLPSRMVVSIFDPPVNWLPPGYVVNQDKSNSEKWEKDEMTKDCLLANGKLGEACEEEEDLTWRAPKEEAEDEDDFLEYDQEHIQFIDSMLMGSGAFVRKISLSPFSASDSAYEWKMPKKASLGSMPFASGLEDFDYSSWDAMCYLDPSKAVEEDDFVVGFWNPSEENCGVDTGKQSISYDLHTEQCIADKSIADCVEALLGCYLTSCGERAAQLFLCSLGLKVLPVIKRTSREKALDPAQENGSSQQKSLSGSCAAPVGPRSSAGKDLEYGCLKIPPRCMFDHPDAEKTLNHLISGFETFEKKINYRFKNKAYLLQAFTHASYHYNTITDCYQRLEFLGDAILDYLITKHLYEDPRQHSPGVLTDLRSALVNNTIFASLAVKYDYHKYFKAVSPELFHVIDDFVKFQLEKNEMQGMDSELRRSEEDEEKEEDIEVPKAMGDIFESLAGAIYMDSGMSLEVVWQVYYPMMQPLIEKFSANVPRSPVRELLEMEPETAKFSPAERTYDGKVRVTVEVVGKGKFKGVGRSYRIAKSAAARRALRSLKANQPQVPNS

Chain of Dicer (full-length) (Q8R418 whole entry, canonical isoform): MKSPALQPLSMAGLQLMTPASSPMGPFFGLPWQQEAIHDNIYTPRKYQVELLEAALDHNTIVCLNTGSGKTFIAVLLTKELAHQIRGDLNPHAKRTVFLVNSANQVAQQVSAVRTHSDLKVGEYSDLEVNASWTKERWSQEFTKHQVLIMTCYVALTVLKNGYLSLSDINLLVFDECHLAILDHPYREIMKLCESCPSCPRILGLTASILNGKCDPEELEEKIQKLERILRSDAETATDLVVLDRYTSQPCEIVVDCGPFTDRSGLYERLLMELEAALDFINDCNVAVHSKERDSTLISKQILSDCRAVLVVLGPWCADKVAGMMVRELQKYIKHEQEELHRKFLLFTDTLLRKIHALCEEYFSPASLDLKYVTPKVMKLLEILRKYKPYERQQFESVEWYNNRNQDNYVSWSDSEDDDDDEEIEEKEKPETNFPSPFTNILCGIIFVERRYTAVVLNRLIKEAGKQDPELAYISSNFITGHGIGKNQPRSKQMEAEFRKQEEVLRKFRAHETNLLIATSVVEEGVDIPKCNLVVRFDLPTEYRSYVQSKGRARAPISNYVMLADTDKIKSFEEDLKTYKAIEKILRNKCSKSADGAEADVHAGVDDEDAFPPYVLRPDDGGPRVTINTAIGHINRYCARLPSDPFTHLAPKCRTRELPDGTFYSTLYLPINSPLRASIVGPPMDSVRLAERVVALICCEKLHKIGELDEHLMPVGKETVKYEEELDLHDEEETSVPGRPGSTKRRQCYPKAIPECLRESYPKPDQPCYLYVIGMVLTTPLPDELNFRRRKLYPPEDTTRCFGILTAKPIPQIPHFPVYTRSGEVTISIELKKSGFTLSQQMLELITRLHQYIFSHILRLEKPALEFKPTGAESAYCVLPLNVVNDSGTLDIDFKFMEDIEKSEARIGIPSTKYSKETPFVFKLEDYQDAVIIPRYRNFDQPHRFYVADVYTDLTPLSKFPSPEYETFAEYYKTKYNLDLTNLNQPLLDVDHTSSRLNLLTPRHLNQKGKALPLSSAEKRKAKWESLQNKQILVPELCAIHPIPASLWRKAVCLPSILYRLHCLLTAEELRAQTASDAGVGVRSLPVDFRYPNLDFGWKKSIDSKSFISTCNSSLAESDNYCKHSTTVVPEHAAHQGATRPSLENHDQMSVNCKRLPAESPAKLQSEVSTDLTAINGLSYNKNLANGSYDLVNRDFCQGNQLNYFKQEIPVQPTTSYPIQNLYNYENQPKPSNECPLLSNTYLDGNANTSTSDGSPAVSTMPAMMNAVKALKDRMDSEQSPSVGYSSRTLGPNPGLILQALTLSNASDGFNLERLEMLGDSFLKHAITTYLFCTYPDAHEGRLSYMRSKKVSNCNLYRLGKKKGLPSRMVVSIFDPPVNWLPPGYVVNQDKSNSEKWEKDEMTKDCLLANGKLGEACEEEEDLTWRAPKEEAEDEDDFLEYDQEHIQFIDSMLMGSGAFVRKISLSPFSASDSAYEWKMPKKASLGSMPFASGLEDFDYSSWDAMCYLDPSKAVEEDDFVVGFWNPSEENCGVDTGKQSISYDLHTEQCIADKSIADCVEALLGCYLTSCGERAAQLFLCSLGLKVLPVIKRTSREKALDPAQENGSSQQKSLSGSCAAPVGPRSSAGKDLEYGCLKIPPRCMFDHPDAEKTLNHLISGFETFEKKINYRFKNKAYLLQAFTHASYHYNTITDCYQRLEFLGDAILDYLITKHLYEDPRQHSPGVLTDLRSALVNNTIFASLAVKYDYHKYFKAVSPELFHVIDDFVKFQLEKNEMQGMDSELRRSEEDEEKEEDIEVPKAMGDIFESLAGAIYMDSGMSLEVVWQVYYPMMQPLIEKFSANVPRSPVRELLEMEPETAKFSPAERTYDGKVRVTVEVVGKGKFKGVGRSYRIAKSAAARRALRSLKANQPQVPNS

Binder | Kd (Dicer (full-length); 42 bp stem) [nM] | Kd ([1]; 42 bp stem) [nM] | Kd (Dicer (full-length); 30 bp stem) [nM] | Kd ([1]; 30 bp stem) [nM]
42bp stem-loop (structured_RNA) RNA: AGAGGAGAGGGACAAUAGAGGAGAGGGACAAUCAUAAAGGCCGCAAGGCCUUUAUGAUUGUCCCUCUCCUCUAUUGUCCCUCUCCUCUUU | 115 ± 20 | 55 ± 4 |  | 
30bp stem-loop (structured_RNA) RNA: AGAGGAGAGGGACAAUCAUAAAGGCCACUCGCAAGAGUGGCCUUUAUGAUUGUCCCUCUCCUCUUU |  |  | 120 ± 27 | 79 ± 7
